For five molecules, OD450 results are on record in patent US20250250357A1 (NANJING ZAIMING PHARMACEUTICAL, published 2025).

Assay [1] has as its target T1, human MSLN-R2-his protein (human, UniProt Q13421 391-486).
T1 construct: Region 2 of human mesothelin, made in HEK293E cells, His-tagged; also called human MSLN-R2 protein; hMSLN-R2-his; not shown: His tag
The experiment in a line: ELISA on coated MSLN-R2; antibody 100 nM. On the technique in general: An ELISA detects its analyte on a solid surface through an enzyme-linked reagent.

For assay [2], the target named is T2, human MSLN-R1-his protein (human, UniProt Q13421 296-390).
T2 construct: Region 1 of human mesothelin, made in HEK293E cells, His-tagged; also called human MSLN-R1 protein; hMSLN-R1-his; not shown: His tag
T2 chain: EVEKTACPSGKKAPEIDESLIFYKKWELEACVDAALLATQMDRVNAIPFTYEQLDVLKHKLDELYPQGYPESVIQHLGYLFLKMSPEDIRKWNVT
Description: ELISA on coated MSLN-R1; antibody 0.001 nM.

Assay [3] concerns the target T2, human MSLN-R1-his protein. The experiment in a line: ELISA on coated MSLN-R1; no antibody (blank).
Assay [4] concerns the target T1, human MSLN-R2-his protein. The experiment in a line: ELISA on coated MSLN-R2; antibody 0.1 nM.
In assay [5] the target is T2, human MSLN-R1-his protein. The experiment in a line: ELISA on coated MSLN-R1; antibody 0.1 nM.
Description: (§1) The plate was sealed with a plastic film and incubated at 4° C. overnight. The next day, the plate was washed twice with PBST, and a blocking buffer [PBS+2% (w/w) BSA] was added for blocking at room temperature for 2 h. The blocking buffer was discarded, and a chimeric antibody or negative control antibody serially diluted from 100 nM was added at 50 μL/well. After incubation at 37° C. for 2 h, the plate was washed 3 times with PBST. […] After incubation at 37° C. for 2 h, the plate was washed 5 times with PBST. A TMB substrate was added at 50 μL/well for incubation at room temperature for 5-10 min, and then a stop solution (1.0 N HCl) was added at 50 μL/well.
Assay [6] addresses T3, human MSLN-R3-his protein (human, UniProt Q13421 487-598).
T3 construct: Region 3 of human mesothelin, made in HEK293E cells, His-tagged; also called human MSLN-R3 protein; hMSLN-R3-his; not shown: His tag
Description: ELISA on coated MSLN-R3; no antibody (blank).

Assay [7] deals with T3, human MSLN-R3-his protein. The experiment in a line: ELISA on coated MSLN-R3; antibody 100 nM.
Description: as §1
Assay [8] addresses T3, human MSLN-R3-his protein. The experiment in a line: ELISA on coated MSLN-R3; antibody 1 nM.
In assay [9] the target is T3, human MSLN-R3-his protein. Description: ELISA on coated MSLN-R3; antibody 10 nM.
Description: as §1
Assay [10] addresses T2, human MSLN-R1-his protein. The experiment in a line: ELISA on coated MSLN-R1; antibody 1 nM.
For assay [11], the target named is T3, human MSLN-R3-his protein. Description: ELISA on coated MSLN-R3; antibody 0.0001 nM.
Description: as §1
In assay [12] the target is T2, human MSLN-R1-his protein. The experiment in a line: ELISA on coated MSLN-R1; antibody 10 nM.
Assay [13] deals with T1, human MSLN-R2-his protein. Description: ELISA on coated MSLN-R2; antibody 0.01 nM.
Description: as §1
The target of assay [14] is T3, human MSLN-R3-his protein. The experiment in a line: ELISA on coated MSLN-R3; antibody 0.01 nM.
Description: as §1
The target of assay [15] is T1, human MSLN-R2-his protein. Description: ELISA on coated MSLN-R2; antibody 1 nM.
Description: as §1
Assay [16] has as its target T2, human MSLN-R1-his protein. The experiment in a line: ELISA on coated MSLN-R1; antibody 0.0001 nM.
Description: as §1
The target in assay [17] is T1, human MSLN-R2-his protein. The experiment in a line: ELISA on coated MSLN-R2; no antibody (blank).
Assay [18] addresses T2, human MSLN-R1-his protein. Description: ELISA on coated MSLN-R1; antibody 0.01 nM.
Description: as §1
The target of assay [19] is T3, human MSLN-R3-his protein. Description: ELISA on coated MSLN-R3; antibody 0.1 nM.
Description: as §1
For assay [20], the target named is T1, human MSLN-R2-his protein. Description: ELISA on coated MSLN-R2; antibody 10 nM.
For assay [21], the target named is T1, human MSLN-R2-his protein. The experiment in a line: ELISA on coated MSLN-R2; antibody 0.0001 nM.
Description: as §1
The target of assay [22] is T2, human MSLN-R1-his protein. The experiment in a line: ELISA on coated MSLN-R1; antibody 100 nM.
Assay [23] addresses T1, human MSLN-R2-his protein. The experiment in a line: ELISA on coated MSLN-R2; antibody 0.001 nM.
Description: as §1
Assay [24] concerns the target T3, human MSLN-R3-his protein. Description: ELISA on coated MSLN-R3; antibody 0.001 nM.
Description: as §1

T1 sequence (Q13421 other isoform, or with tags, fused parts or gaps): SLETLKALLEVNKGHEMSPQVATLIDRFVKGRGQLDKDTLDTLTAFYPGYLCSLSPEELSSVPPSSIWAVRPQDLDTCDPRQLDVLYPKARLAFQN
T3 sequence (Q13421 495-606): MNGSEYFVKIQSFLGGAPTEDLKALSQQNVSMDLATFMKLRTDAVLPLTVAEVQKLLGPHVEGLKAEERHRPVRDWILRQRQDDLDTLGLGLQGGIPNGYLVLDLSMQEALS

B1: S009-F8-18.9 (antibody, human IgG1, kappa, V domains shown)
VH: EFQLQQSGPELVKPGASVKISCKASGYSFTDYNMNWVKQSNGKSLEWIGIINPNYGTTSYNQKFKGRATLTVDQSSSTAYVQLNSLTSEDSAVYYCARGGYDNEAMDYWGQGTSVTVSS
VL: QIVLTQSPAIMSASPGEKVTMTCSASSSVSYMHWYQQKSGTSPKRWIYDTSKLASGVPARFSGSGSGTSYSLTISSMEAEDAATYYCQQWSSNPPTFGAGTKLELKR
B1: the OD450 stood at 0.08 OD450 in [1]; 0.15 OD450 in assay [2]; 0.05 OD450 in assay [3]; 0.04 OD450 in assay [4]; 1.73 OD450 in assay [5]; 0.05 OD450 in assay [6]. The OD450 worked out at 0.1 OD450 in assay [7]; 0.05 OD450 in [8]; 0.06 OD450 in assay [9]; 1.96 OD450 in assay [10]; 0.04 OD450 in assay [11]; 2.12 OD450 in [12]. Moreover, the OD450 in [13] is 0.04 OD450; in assay [14], 0.04 OD450; in assay [15] it was 0.05 OD450; in assay [16] it was 0.06 OD450; in assay [17], 0.05 OD450; in [18], 0.62 OD450. In addition, the OD450 was 0.04 OD450 in assay [19]; 0.06 OD450 in assay [20]; 0.04 OD450 in assay [21]; 2.15 OD450 in [22]; 0.04 OD450 in assay [23]; 0.05 OD450 in [24].

B2: S009-F8-9.16 (antibody, human IgG1, kappa, V domains shown)
VH: EVHLQQSGPVLVKPGASVKMSCKASGYTFTDYFMNWVKQSHGKSLEWIGVINPHNGYVNYNQKFQGRATLTVDKSSSTVYMELNSLTSEDSAVYHCARSAESAWFAYWGQRTLVTVSA
VL: DVLMTQTPLSLPVSLGDQVSISCRSSQSIVHVKGNTYLEWYLQKPGQSPELLIYKVSNRFSGVPDRFSGGGSGTDFTLKISRVEPEDLGVYYCFQGSHLPYTFGGGTKLEIKR
On to B2, for which the OD450 in assay [1] worked out at 0.07 OD450; in assay [2], 0.04 OD450; in [3] it was 0.04 OD450; in assay [4], 0.04 OD450; in [5], 0.04 OD450; in [6], 0.03 OD450. The OD450 in assay [7] came out at 2.4 OD450; in assay [8], 2.23 OD450; in assay [9] it was 2.03 OD450; in assay [10], 0.04 OD450; in assay [11], 0.06 OD450; in [12], 0.05 OD450. Moreover, the OD450 worked out at 0.04 OD450 in assay [13]; 0.5 OD450 in assay [14]; 0.04 OD450 in assay [15]; 0.04 OD450 in assay [16]; 0.05 OD450 in assay [17]; 0.04 OD450 in assay [18]. The OD450 came to 1.38 OD450 in assay [19]; 0.05 OD450 in [20]; 0.04 OD450 in assay [21]; 0.09 OD450 in assay [22]; 0.04 OD450 in assay [23]; 0.11 OD450 in assay [24].

B3: S009-F8-13.8 (antibody, human IgG1, kappa, V domains shown)
VH: EFQLQQSGPELVKPGASVKISCKASGYSFTDYNMNWVKQTNGKSLEWIGIINPNYGTSSYNQKFKGKATLTVDQSSSTAYMQLNSLTSEDSAVYYCARVGRDNSGFDYWGQGTTLTVSS
VL: QIVLTQSPAIMSASPGEKVTMTCSASSSVSYMYWYQQKPGSSPRLLIYDTSNLASGVPVRFSGSGSGTSYSLTISRMEAEDAATYYCQQWSSYPPTFGSGTELEIKR
For the molecule B3, the OD450 in assay [1] worked out at 0.06 OD450; in assay [2], 0.08 OD450; in [3], 0.05 OD450; in [4], 0.05 OD450; in assay [5] it was 1.26 OD450; in assay [6] it was 0.05 OD450. The OD450 is 0.06 OD450 in assay [7]; 0.04 OD450 in assay [8]; 0.05 OD450 in [9]; 1.8 OD450 in assay [10]; 0.04 OD450 in assay [11]; 2.1 OD450 in assay [12]. In addition, the OD450 was determined as 0.04 OD450 in assay [13]; 0.04 OD450 in assay [14]; 0.04 OD450 in [15]; 0.05 OD450 in [16]; 0.05 OD450 in [17]; 0.28 OD450 in assay [18]. For the same molecule, the OD450 amounted to 0.04 OD450 in assay [19]; 0.05 OD450 in [20]; 0.05 OD450 in [21]; 2.35 OD450 in assay [22]; 0.05 OD450 in assay [23]; 0.05 OD450 in assay [24].

B4: S009-F8-12.13 (antibody, human IgG1, kappa, V domains shown)
VH: QVQLQQPGAELVKPGASVKLSCKASGYTFTSYWMHWVKQRPGQGLEWIGMIHPNSGSTNYNEKFKSKATLTVDKSSSTAYMQLSSLTSEDSAVYYCARRTPIITLVGHWYFDVWGTGTTVTVSS
VL: DIVMTQSHKFMSTSVGDRVSITCKASQDVGTAVAWYQQKPGQSPKLLIYWASTRHTGVPDRFTGSGSGTDFTLTISNVQSEDLADYFCQQYSSYPLTFGAGTKLELKR
For B4, the OD450 was found to be 0.15 OD450 in assay [1]; 0.52 OD450 in assay [2]; 0.05 OD450 in assay [3]; 0.05 OD450 in assay [4]; 1.97 OD450 in assay [5]; 0.05 OD450 in assay [6]. In addition, the OD450 worked out at 0.2 OD450 in [7]; 0.06 OD450 in assay [8]; 0.1 OD450 in [9]; 2.06 OD450 in [10]; 0.04 OD450 in [11]; 2.16 OD450 in assay [12]. Moreover, the OD450 in [13] was 0.05 OD450; in assay [14], 0.04 OD450; in [15], 0.05 OD450; in assay [16], 0.32 OD450; in assay [17], 0.05 OD450; in assay [18] it was 1.18 OD450. Further, the OD450 in [19] was determined as 0.05 OD450; in assay [20], 0.07 OD450; in assay [21], 0.04 OD450; in assay [22], 2.17 OD450; in assay [23], 0.04 OD450; in [24] it was 0.05 OD450.

B5: S009-F8-15.19 (antibody, human IgG1, kappa, V domains shown)
VH: EFQLQQSGPELVKPGASVKISCKASGYSFTDYNMNWVKQSNGKSLEWIGIINPYYGTTSNNQNFKGKATLTVDQSSSTAYMQLNSLTSDDSAVYYCARWLRRDAMDYWGQGTSVTVSS
VL: DIVMTPSHKFMSTSVGDRVSIACKASQDVGSSVAWYQQKPGQSPKLLIYWTSTRHTGVPDRFTGSGSGTDFTLTISNVQSEDLADYFCQQYSSYPWTFGGGTKLEIKR
For the molecule B5, the OD450 stood at 0.05 OD450 in assay [1]; 0.05 OD450 in assay [2]; 0.05 OD450 in assay [3]; 0.04 OD450 in assay [4]; 0.1 OD450 in assay [5]; 0.05 OD450 in [6]. The OD450 in assay [7] was 0.08 OD450; in assay [8] it was 0.04 OD450; in [9], 0.05 OD450; in assay [10], 0.54 OD450; in assay [11], 0.04 OD450; in assay [12], 1.55 OD450. The OD450 stood at 0.04 OD450 in assay [13]; 0.04 OD450 in assay [14]; 0.04 OD450 in [15]; 0.04 OD450 in assay [16]; 0.05 OD450 in [17]; 0.05 OD450 in [18]. Further, the OD450 was found to be 0.04 OD450 in assay [19]; 0.05 OD450 in assay [20]; 0.05 OD450 in [21]; 2.07 OD450 in assay [22]; 0.04 OD450 in assay [23]; 0.04 OD450 in assay [24].
